Measurements taken from US20160024487.

What was measured:
[1] = system: T1, Lys(Dnp)-ATNATX4X3PRIVGG-Lys(Abz), X4 = S, X3 = Q
T1 sequence: KATNATSQPRIVGGK

[2] = system: T2, Lys(Dnp)-ATNATX4X3PRIVGG-Lys(Abz), X4 = A, X3 = E
T2 sequence: KATNATAEPRIVGGK

[3] = system: T3, Lys(Dnp)-ATNATX4X3PRIVGG-Lys(Abz), X4 = N, X3 = H
T3 sequence: KATNATNHPRIVGGK

[4] = system: T4, Lys(Dnp)-ATNATX4X3PRIVGG-Lys(Abz), X4 = G, X3 = F
T4 sequence: KATNATGFPRIVGGK

[5] = system: T5, Lys(Dnp)-ATNATX4X3PRIVGG-Lys(Abz), X4 = H, X3 = R
T5 sequence: KATNATHRPRIVGGK

[6] = system: T6, Lys(Dnp)-ATNATX4X3PRIVGG-Lys(Abz), X4 = H, X3 = Y
T6 sequence: KATNATHYPRIVGGK

[7] = system: T7, Lys(Dnp)-ATNATX4X3PRIVGG-Lys(Abz), X4 = Y, X3 = D
T7 sequence: KATNATYDPRIVGGK

[8] = system: T8, Lys(Dnp)-ATNATX4X3PRIVGG-Lys(Abz), X4 = S, X3 = D
T8 sequence: KATNATSDPRIVGGK

[9] = system: T9, Lys(Dnp)-ATNATX4X3PRIVGG-Lys(Abz), X4 = S, X3 = R
T9 sequence: KATNATSRPRIVGGK

[10] = system: T10, Lys(Dnp)-ATNATX4X3PRIVGG-Lys(Abz), X4 = N, X3 = F
T10 sequence: KATNATNFPRIVGGK

[11] = system: T11, Lys(Dnp)-ATNATX4X3PRIVGG-Lys(Abz), X4 = E, X3 = F
T11 sequence: KATNATEFPRIVGGK

[12] = system: T12, Lys(Dnp)-ATNATX4X3PRIVGG-Lys(Abz), X4 = P, X3 = P
T12 sequence: KATNATPPPRIVGGK

[13] = system: T13, Lys(Dnp)-ATNATX4X3PRIVGG-Lys(Abz), X4 = V, X3 = L
T13 sequence: KATNATVLPRIVGGK

[14] = system: T14, Lys(Dnp)-ATNATX4X3PRIVGG-Lys(Abz), X4 = H, X3 = Q
T14 sequence: KATNATHQPRIVGGK

[15] = system: T15, Lys(Dnp)-ATNATX4X3PRIVGG-Lys(Abz), X4 = K, X3 = F
T15 sequence: KATNATKFPRIVGGK

[16] = system: T16, Lys(Dnp)-ATNATX4X3PRIVGG-Lys(Abz), X4 = T, X3 = V
T16 sequence: KATNATTVPRIVGGK

[17] = system: T17, Lys(Dnp)-ATNATX4X3PRIVGG-Lys(Abz), X4 = D, X3 = G
T17 sequence: KATNATDGPRIVGGK

[18] = system: T18, Lys(Dnp)-ATNATX4X3PRIVGG-Lys(Abz), X4 = Q, X3 = M
T18 sequence: KATNATQMPRIVGGK

[19] = system: T19, Lys(Dnp)-ATNATX4X3PRIVGG-Lys(Abz), X4 = K, X3 = D
T19 sequence: KATNATKDPRIVGGK

[20] = system: T20, Lys(Dnp)-ATNATX4X3PRIVGG-Lys(Abz), X4 = Q, X3 = Q
T20 sequence: KATNATQQPRIVGGK

[21] = system: T21, Lys(Dnp)-ATNATX4X3PRIVGG-Lys(Abz), X4 = G, X3 = P
T21 sequence: KATNATGPPRIVGGK

[22] = system: T22, Lys(Dnp)-ATNATX4X3PRIVGG-Lys(Abz), X4 = S, X3 = T
T22 sequence: KATNATSTPRIVGGK

[23] = system: T23, Lys(Dnp)-ATNATX4X3PRIVGG-Lys(Abz), X4 = H, X3 = W
T23 sequence: KATNATHWPRIVGGK

[24] = system: T24, Lys(Dnp)-ATNATX4X3PRIVGG-Lys(Abz), X4 = D, X3 = F
T24 sequence: KATNATDFPRIVGGK

[25] = system: T25, Lys(Dnp)-ATNATX4X3PRIVGG-Lys(Abz), X4 = T, X3 = N
T25 sequence: KATNATTNPRIVGGK

[26] = system: T26, Lys(Dnp)-ATNATX4X3PRIVGG-Lys(Abz), X4 = V, X3 = D
T26 sequence: KATNATVDPRIVGGK

[27] = system: T27, Lys(Dnp)-ATNATX4X3PRIVGG-Lys(Abz), X4 = Q, X3 = V
T27 sequence: KATNATQVPRIVGGK

[28] = system: T28, Lys(Dnp)-ATNATX4X3PRIVGG-Lys(Abz), X4 = E, X3 = K
T28 sequence: KATNATEKPRIVGGK

[29] = system: T29, Lys(Dnp)-ATNATX4X3PRIVGG-Lys(Abz), X4 = E, X3 = W
T29 sequence: KATNATEWPRIVGGK

[30] = system: T30, Lys(Dnp)-ATNATX4X3PRIVGG-Lys(Abz), X4 = H, X3 = A
T30 sequence: KATNATHAPRIVGGK

[31] = system: T31, Lys(Dnp)-ATNATX4X3PRIVGG-Lys(Abz), X4 = W, X3 = I
T31 sequence: KATNATWIPRIVGGK

[32] = system: T32, Lys(Dnp)-ATNATX4X3PRIVGG-Lys(Abz), X4 = N, X3 = Q
T32 sequence: KATNATNQPRIVGGK

[33] = system: T33, Lys(Dnp)-ATNATX4X3PRIVGG-Lys(Abz), X4 = T, X3 = A
T33 sequence: KATNATTAPRIVGGK

[34] = system: T34, Lys(Dnp)-ATNATX4X3PRIVGG-Lys(Abz), X4 = Q, X3 = W
T34 sequence: KATNATQWPRIVGGK

[35] = system: T35, Lys(Dnp)-ATNATX4X3PRIVGG-Lys(Abz), X4 = N, X3 = V
T35 sequence: KATNATNVPRIVGGK

[36] = system: T36, Lys(Dnp)-ATNATX4X3PRIVGG-Lys(Abz), X4 = M, X3 = E
T36 sequence: KATNATMEPRIVGGK

[37] = system: T37, Lys(Dnp)-ATNATX4X3PRIVGG-Lys(Abz), X4 = Y, X3 = E
T37 sequence: KATNATYEPRIVGGK

[38] = system: T38, Lys(Dnp)-ATNATX4X3PRIVGG-Lys(Abz), X4 = N, X3 = G
T38 sequence: KATNATNGPRIVGGK

[39] = system: T39, Lys(Dnp)-ATNATX4X3PRIVGG-Lys(Abz), X4 = G, X3 = M
T39 sequence: KATNATGMPRIVGGK

Human plasma purified Factor Xa
FXa kcat/KM [1]: 45 M⁻¹ s⁻¹ | FXa kcat/KM [2]: 180 M⁻¹ s⁻¹ | FXa kcat/KM [3]: 15 M⁻¹ s⁻¹ | FXa kcat/KM [4]: 35 M⁻¹ s⁻¹ | FXa kcat/KM [5]: 140 M⁻¹ s⁻¹ | FXa kcat/KM [6]: 41 M⁻¹ s⁻¹ | FXa kcat/KM [7]: 36 M⁻¹ s⁻¹ | FXa kcat/KM [8]: 10 M⁻¹ s⁻¹ | FXa kcat/KM [9]: 130 M⁻¹ s⁻¹ | FXa kcat/KM [10]: 14 M⁻¹ s⁻¹ | FXa kcat/KM [11]: 14 M⁻¹ s⁻¹ | FXa kcat/KM [12]: 14 M⁻¹ s⁻¹ | FXa kcat/KM [13]: 330 M⁻¹ s⁻¹ | FXa kcat/KM [14]: 160 M⁻¹ s⁻¹ | FXa kcat/KM [15]: 35 M⁻¹ s⁻¹ | FXa kcat/KM [16]: 20 M⁻¹ s⁻¹ | FXa kcat/KM [17]: 5.8 M⁻¹ s⁻¹ | FXa kcat/KM [18]: 2200 M⁻¹ s⁻¹ | FXa kcat/KM [19]: 45 M⁻¹ s⁻¹ | FXa kcat/KM [20]: 1400 M⁻¹ s⁻¹ | FXa kcat/KM [21]: 7.5 M⁻¹ s⁻¹ | FXa kcat/KM [22]: 32 M⁻¹ s⁻¹ | FXa kcat/KM [23]: 320 M⁻¹ s⁻¹ | FXa kcat/KM [24]: 11 M⁻¹ s⁻¹ | FXa kcat/KM [25]: 13 M⁻¹ s⁻¹ | FXa kcat/KM [26]: 70 M⁻¹ s⁻¹ | FXa kcat/KM [27]: 430 M⁻¹ s⁻¹ | FXa kcat/KM [28]: 7.9 M⁻¹ s⁻¹ | FXa kcat/KM [29]: 8 M⁻¹ s⁻¹ | FXa kcat/KM [30]: 53 M⁻¹ s⁻¹ | FXa kcat/KM [31]: 180 M⁻¹ s⁻¹ | FXa kcat/KM [32]: 27 M⁻¹ s⁻¹ | FXa kcat/KM [33]: 20 M⁻¹ s⁻¹ | FXa kcat/KM [34]: 1400 M⁻¹ s⁻¹ | FXa kcat/KM [35]: 17 M⁻¹ s⁻¹ | FXa kcat/KM [36]: 600 M⁻¹ s⁻¹ | FXa kcat/KM [37]: 54 M⁻¹ s⁻¹ | FXa kcat/KM [38]: 9.2 M⁻¹ s⁻¹ | FXa kcat/KM [39]: 52 M⁻¹ s⁻¹
